Assay results as given in patent US12018058B2, “Compositions and methods for diagnosing and/or treating kidney injury” (Boston Medical Center Corporation, priority 2018, dated 2024).
Entries after “also recorded” stand apart in the source; their conditions may differ.

Test system: primary murine proximal tubule epithelial cells (PTECs)
Assay: Functional bioassays of flag-tagged NPM phosphomimic proteins expressed in PTECs
Type: cell-based
Conditions: for Postischemia cell survival: 60 minutes ATP depletion, FIG. 5E; for NPM localization in resting cells: absence of ischemic stress, FIG. 5A; for NPM-Bax complex formation: after ATP depletion, FIG. 5C; for NPM and active Bax accumulation in isolated mitochondria: after ischemic stress, FIG. 5D; for NPM oligomeric state: resting cells, native gel, FIG. 5B
Source text: The biologic behavior of nucleophosmin (NPM) phosphomimic proteins assessed using functional bioassays performed in primary murine proximal tubule epithelial cells (PTECs) that express flag-tagged wild type (WT), a normal (Nor-M or NrNPM) NPM mimic protein, or a stress (Stre-M, StNPM, or Stress-M) NPM mimic protein that replicates differential NPM phosphorylation. […] EV, empty sgOpti vector; RDU, relative density unit. *P, 0.05 for Nor-M and Stress-M NPM phosphomimics versus control (CTL).
Human NPM cDNA (catalog no. 34553; Addgene, Cambridge, MA) and pCDH lentivector systems (System Biosciences, Mountain View, CA) were used to generate NPM wild-type, “NPM stress mimic” (T86E-S88E-T95E-T234A-S242A), and “NPM normal mimic” (T86A-S88A-T95A-T234E-S242E) lentiviral expression plasmids by PCR-based mutagenesis with a flag tag fused to the 59 open reading frame. PCR products were cloned into pCDH vector BamHI/EcoRI sites. All constructs were confirmed by DNA sequencing before cotransfection with pPACKG1 lentivector packaging plasmids into HEK293NT cells to generate lentipseudoviral particles. The resultant pseudoviruses were harvested and purified, and titers were determined according to the manufacturer's instructions. Cells were exposed to virus (MOT 5-8) diluted in Opti-MEM (Invitrogen). After 6 hours incubation with virus-infected medium, a complete culture medium was substituted for an additional 16-hour incubation period.
To determine the biologic role of differential NPM phosphorylation at these five serine/threonine sites and the contribution to cytotoxicity, two flag-tagged NPM phosphomutant proteins as well as wild-type NPM were generated and introduced into human proximal tubule cells. These two mimic proteins replicated the phosphorylation state of NPM in either its normal or stressed configuration at the five differentially phosphorylated sites identified by mass spectrometry (FIG. 4). Specific bioassays were then used to assess the effect of these five post-translational phosphorylation changes on toxic NPM behaviors, including translocation, deoligomerization, NPM-Bax complex formation, mitochondrial NPM and Bax accumulation, and cell death.
Based on this phospho-proteomic data, 32 site-specific, amino terminal, flag-tagged NPM proteins with differential phosphorylation were generated (see FIG. 4B) and placed in a lentiviral vector ([…] phospho-mimic proteins; ref Wang, Havasi et al. 2011). Both the plasmid sequence and protein expression were confirmed. Serine or threonine residues in each of the NPM phospho-mimics was rendered either nonphosphorylatable (alanine substitution) or phospho-mimetic (glutamic acid substitution) at each of the 5 NPM residues identified by mass spec to be altered by ischemia. These NPM phospho-mimics represent all of the possible combinations of constitutively non-phosphorylated and phosphorylated variants at all of the 5 phosphosites ([…], see table, FIG. 4B). The flag epitope facilitates immunohistochemistry for detecting NPM distribution, NPM oligomerization and immunoprecipitation (IP) for detecting interaction between Bax and each NPM phospho-mimic. To establish a causal link between phosphorylation and NPM-function, a flag-tagged NPM mimic that replicated the NPM phospho-state in healthy PTEC and kidney tissue (#10, “normal NPM mimic”) or replicated NPM phosphorylation in post-ischemic cells and tissue (#11; “stress-NPM mimic”; FIG. 4B) was introduced into primary murine PTEC for further study. Dramatic differences in the biologic behavior of these 2 NPM phospho-mimics were detected. […] Using this phospho-data generate 2 new therapeutic peptides that target either T86, S88 and T95 or T232 and S240 were generated (FIG. 4A) and tested (FIG. 7). Screening the remaining NPM mimic proteins can identify the specific function of all 5 phospho-sites.

[1] = listed as normal NPM-phospho-mimic

B1: normal mimic NPM: flag-tagged NPM phosphomutant T86A-S88A-T95A-T234E-S242E expressed by lentivirus (protein)
chain: MEDSMDMDMSPLRPQNYLFGCELKADKDYHFKVDNDENEHQLSLRTVSLGAGAKDELHIVEAEAMNYEGSPIKVTLATLKMSVQPAVALGGFEIAPPVVLRLKCGSGPVHISGQHLVAVEEDAESEDEEEEDVKLLSISGKRSAPGGGSKVPQKKVKLAADEDDDDDDEEDDDEDDDDDDFDDEEAEEKAPVKKSIRDTPAKNAQKSNQNGKDSKPSSTPRSKGQESFKKQEKEPKTPKGPESVEDIKAKMQASIEKGGSLPKVEAKFINYVKNCFRMTDQEAIQDLWQWRKSL
modifications: left off: small tags and cut ends
notes: flag-tagged NPM phosphomutant T86A-S88A-T95A-T234E-S242E expressed by lentivirus
Q: Which Postischemia cell survival does the source give for B1 here?
A: Its Postischemia cell survival is “significantly reduced cell death; also recorded: improved PTEC survival”.

Q: What about the “NPM localization in resting cells” value (listed as normal NPM phosphomimic) of the same molecule?
A: The value was “accumulated in a nucleolar pattern”.

Q: What about the “NPM localization in resting cells” value [1] of the same molecule?
A: Its value is “exclusively localized to nucleoli”.

Q: What about the NPM-Bax complex formation of the same molecule?
A: Its NPM-Bax complex formation is “decreased NPM-Bax complex formation”.

Q: What about the NPM-Bax complex formation [1] of the same molecule?
A: The NPM-Bax complex formation was “minimally complexed with Bax”.

Q: And the “NPM and active Bax accumulation in isolated mitochondria” value?
A: The value was “decreased”.

Q: What about the “NPM and active Bax accumulation in isolated mitochondria” value [1] of the same molecule?
A: The value was “did not accumulate in isolated mitochondria”.

Q: What about the NPM oligomeric state of the same molecule?
A: The NPM oligomeric state was “formed large oligomers”.

Q: What about the NPM oligomeric state [1] of the same molecule?
A: Its NPM oligomeric state is “remained in the oligomerized state”.

B2: stress mimic NPM: flag-tagged NPM phosphomutant T86E-S88E-T95E-T234A-S242A expressed by lentivirus (protein)
chain: MEDSMDMDMSPLRPQNYLFGCELKADKDYHFKVDNDENEHQLSLRTVSLGAGAKDELHIVEAEAMNYEGSPIKVTLATLKMSVQPEVELGGFEIEPPVVLRLKCGSGPVHISGQHLVAVEEDAESEDEEEEDVKLLSISGKRSAPGGGSKVPQKKVKLAADEDDDDDDEEDDDEDDDDDDFDDEEAEEKAPVKKSIRDTPAKNAQKSNQNGKDSKPSSTPRSKGQESFKKQEKAPKTPKGPASVEDIKAKMQASIEKGGSLPKVEAKFINYVKNCFRMTDQEAIQDLWQWRKSL
modifications: left off: small tags and cut ends
notes: flag-tagged NPM phosphomutant T86E-S88E-T95E-T234A-S242A expressed by lentivirus
Q: What does the source list for B2?
A: Postischemia cell survival: significantly lower; Postischemia cell survival (listed as stress NPM mimic): significantly decreased PTEC survival; NPM localization in resting cells (listed as NPM stress mimic protein): localized to the cytosol; NPM localization in resting cells (listed as stress NPM mimic): exclusively localized to the cytosol; NPM-Bax complex formation: substantially greater; NPM-Bax complex formation (listed as stress NPM mimic): markedly increased NPM-Bax complex formation; NPM and active Bax accumulation in isolated mitochondria: exceeded that observed with wild-type or normal mimic NPM; NPM and active Bax accumulation in isolated mitochondria (listed as stress NPM mimic): dramatically increased NPM accumulation in isolated mitochondria; NPM oligomeric state: accumulated as small monomers; NPM oligomeric state (listed as stress NPM mimic): caused marked NPM de-oligomerization
